# From PMC12102759 (2025)
# B1: SH3BP2 peptide 408-423 (SH3 domain-binding protein 2), 16-mer library wild type / TNKS ANK (TNKS 12 ANK repeats, residues 174-649) (parent complex)
# chain 1: PQLPHLQRSPPDGQSF
# chain 2: TGVPAVSGALRELLEACRNGDVSRVKRLVDAANVNAKDMAGRKSSPLHFAAGFGRKDVVEHLLQMGANVHARDDGGLIPLHNACSFGHAEVVSLLLCQGADPNARDNWNYTPLHEAAIKGKIDVCIVLLQHGADPNIRNTDGKSALDLADPSAKAVLTGEYKKDELLEAARSGNEEKLMALLTPLNVNCHASDGRKSTPLHLAAGYNRVRIVQLLLQHGADVHAKDKGGLVPLHNACSYGHYEVTELLLKHGACVNAMDLWQFTPLHEAASKNRVEVCSLLLSHGADPTLVNCHGKSAVDMAPTPELRERLTYEFKGHSLLQAAREADLAKVKKTLALEIINFKQPQSHETALHCAVASLHPKRKQVTELLLRKGANVNEKNKDFMTPLHVAAERAHNDVMEVLHKHGAKMNALDTLGQTALHRAALAGHLQTCRLLLSYGSDPSIISLQGFTAAQMGNEAVQQILSESTPIRTSD
# Variants of: B1
# Experiment: proteomic peptide phage display deep mutational scan (ProP-PD DMS): M13 P8 16-mer library selected against immobilised GST-tagged bait for four days (rounds), NGS of the eluted pools per day and pseudo-replica; bait immobilised on MaxiSorp plates (10 µg), library pre-cleared on GST, 2 h binding at 4 °C, five washes; one round per day, days 1-4; value from days 2 and 3
row,Variant,screen value
1,chain 1 L6V,"0.000569 average fractional NGS count over selection days 2 and 3 (reads of this peptide / all reads for the bait, averaged over …"
2,chain 1 L6D,"0.00436 average fractional NGS count over selection days 2 and 3 (reads of this peptide / all reads for the bait, averaged over …"
3,chain 1 L6S,"0.000251 average fractional NGS count over selection days 2 and 3 (reads of this peptide / all reads for the bait, averaged over …"
4,chain 1 L6G,"0.000481 average fractional NGS count over selection days 2 and 3 (reads of this peptide / all reads for the bait, averaged over …"
5,chain 1 P4E,"0.000494 average fractional NGS count over selection days 2 and 3 (reads of this peptide / all reads for the bait, averaged over …"
6,chain 1 P4V,"0.000162 average fractional NGS count over selection days 2 and 3 (reads of this peptide / all reads for the bait, averaged over …"
7,chain 1 P4L,"0.000189 average fractional NGS count over selection days 2 and 3 (reads of this peptide / all reads for the bait, averaged over …"
8,chain 1 P4W,"0.000229 average fractional NGS count over selection days 2 and 3 (reads of this peptide / all reads for the bait, averaged over …"
9,chain 1 P4A,"0.00484 average fractional NGS count over selection days 2 and 3 (reads of this peptide / all reads for the bait, averaged over …"
10,chain 1 P4S,"0.000214 average fractional NGS count over selection days 2 and 3 (reads of this peptide / all reads for the bait, averaged over …"
11,chain 1 P4H,"0.00111 average fractional NGS count over selection days 2 and 3 (reads of this peptide / all reads for the bait, averaged over …"
12,chain 1 P4M,"0.00173 average fractional NGS count over selection days 2 and 3 (reads of this peptide / all reads for the bait, averaged over …"
13,chain 1 P4Q,"0.000351 average fractional NGS count over selection days 2 and 3 (reads of this peptide / all reads for the bait, averaged over …"
14,chain 1 P4N,"0.000673 average fractional NGS count over selection days 2 and 3 (reads of this peptide / all reads for the bait, averaged over …"
15,chain 1 P4D,"0.000447 average fractional NGS count over selection days 2 and 3 (reads of this peptide / all reads for the bait, averaged over …"
16,chain 1 P4I,"0.000387 average fractional NGS count over selection days 2 and 3 (reads of this peptide / all reads for the bait, averaged over …"
17,chain 1 P4Y,"0.000273 average fractional NGS count over selection days 2 and 3 (reads of this peptide / all reads for the bait, averaged over …"
18,chain 1 F16P,"0.0012 average fractional NGS count over selection days 2 and 3 (reads of this peptide / all reads for the bait, averaged over …"
19,chain 1 F16A,"0.00179 average fractional NGS count over selection days 2 and 3 (reads of this peptide / all reads for the bait, averaged over …"
20,chain 1 F16Q,"0.000905 average fractional NGS count over selection days 2 and 3 (reads of this peptide / all reads for the bait, averaged over …"
21,chain 1 F16M,"0.00196 average fractional NGS count over selection days 2 and 3 (reads of this peptide / all reads for the bait, averaged over …"
22,chain 1 F16V,"0.00271 average fractional NGS count over selection days 2 and 3 (reads of this peptide / all reads for the bait, averaged over …"
23,chain 1 F16D,"0.000232 average fractional NGS count over selection days 2 and 3 (reads of this peptide / all reads for the bait, averaged over …"
24,chain 1 F16E,"0.000221 average fractional NGS count over selection days 2 and 3 (reads of this peptide / all reads for the bait, averaged over …"
25,chain 1 F16Y,"0.011 average fractional NGS count over selection days 2 and 3 (reads of this peptide / all reads for the bait, averaged over …"

row,Variant,screen value
1,chain 1 F16L,"0.00209 average fractional NGS count over selection days 2 and 3 (reads of this peptide / all reads for the bait, averaged over …"
2,chain 1 F16W,"0.000272 average fractional NGS count over selection days 2 and 3 (reads of this peptide / all reads for the bait, averaged over …"
3,chain 1 F16R,"0.00135 average fractional NGS count over selection days 2 and 3 (reads of this peptide / all reads for the bait, averaged over …"
4,chain 1 F16N,"0.000118 average fractional NGS count over selection days 2 and 3 (reads of this peptide / all reads for the bait, averaged over …"
5,chain 1 F16G,"0.000376 average fractional NGS count over selection days 2 and 3 (reads of this peptide / all reads for the bait, averaged over …"
6,chain 1 F16H,"0.00294 average fractional NGS count over selection days 2 and 3 (reads of this peptide / all reads for the bait, averaged over …"
7,chain 1 F16I,"0.000483 average fractional NGS count over selection days 2 and 3 (reads of this peptide / all reads for the bait, averaged over …"
8,chain 1 R8E,"0.000101 average fractional NGS count over selection days 2 and 3 (reads of this peptide / all reads for the bait, averaged over …"
9,chain 1 Q14N,"0.000561 average fractional NGS count over selection days 2 and 3 (reads of this peptide / all reads for the bait, averaged over …"
10,chain 1 Q14G,"0.000379 average fractional NGS count over selection days 2 and 3 (reads of this peptide / all reads for the bait, averaged over …"
11,chain 1 Q14F,"0.000219 average fractional NGS count over selection days 2 and 3 (reads of this peptide / all reads for the bait, averaged over …"
12,chain 1 Q14L,"0.000462 average fractional NGS count over selection days 2 and 3 (reads of this peptide / all reads for the bait, averaged over …"
13,chain 1 Q14M,"0.00362 average fractional NGS count over selection days 2 and 3 (reads of this peptide / all reads for the bait, averaged over …"
14,chain 1 Q14S,"0.0015 average fractional NGS count over selection days 2 and 3 (reads of this peptide / all reads for the bait, averaged over …"
15,chain 1 Q14I,"0.000236 average fractional NGS count over selection days 2 and 3 (reads of this peptide / all reads for the bait, averaged over …"
16,chain 1 Q14H,"0.00138 average fractional NGS count over selection days 2 and 3 (reads of this peptide / all reads for the bait, averaged over …"
17,chain 1 Q14T,"0.00291 average fractional NGS count over selection days 2 and 3 (reads of this peptide / all reads for the bait, averaged over …"
18,chain 1 Q14R,"0.000901 average fractional NGS count over selection days 2 and 3 (reads of this peptide / all reads for the bait, averaged over …"
19,chain 1 Q14E,"0.000266 average fractional NGS count over selection days 2 and 3 (reads of this peptide / all reads for the bait, averaged over …"
20,chain 1 Q14K,"0.00049 average fractional NGS count over selection days 2 and 3 (reads of this peptide / all reads for the bait, averaged over …"
21,chain 1 Q14Y,"0.000878 average fractional NGS count over selection days 2 and 3 (reads of this peptide / all reads for the bait, averaged over …"
22,chain 1 Q14V,"0.00071 average fractional NGS count over selection days 2 and 3 (reads of this peptide / all reads for the bait, averaged over …"
23,chain 1 Q2K,"0.000141 average fractional NGS count over selection days 2 and 3 (reads of this peptide / all reads for the bait, averaged over …"
24,chain 1 Q2H,"0.000483 average fractional NGS count over selection days 2 and 3 (reads of this peptide / all reads for the bait, averaged over …"
25,chain 1 Q2F,"0.000172 average fractional NGS count over selection days 2 and 3 (reads of this peptide / all reads for the bait, averaged over …"

row,Variant,screen value
1,chain 1 Q2L,"0.00153 average fractional NGS count over selection days 2 and 3 (reads of this peptide / all reads for the bait, averaged over …"
2,chain 1 Q2S,"0.00172 average fractional NGS count over selection days 2 and 3 (reads of this peptide / all reads for the bait, averaged over …"
3,chain 1 Q2A,"0.000765 average fractional NGS count over selection days 2 and 3 (reads of this peptide / all reads for the bait, averaged over …"
4,chain 1 Q2M,"0.000169 average fractional NGS count over selection days 2 and 3 (reads of this peptide / all reads for the bait, averaged over …"
5,chain 1 Q2D,"0.00112 average fractional NGS count over selection days 2 and 3 (reads of this peptide / all reads for the bait, averaged over …"
6,chain 1 Q2G,"0.000233 average fractional NGS count over selection days 2 and 3 (reads of this peptide / all reads for the bait, averaged over …"
7,chain 1 Q2V,"0.000821 average fractional NGS count over selection days 2 and 3 (reads of this peptide / all reads for the bait, averaged over …"
8,chain 1 Q2E,"0.000696 average fractional NGS count over selection days 2 and 3 (reads of this peptide / all reads for the bait, averaged over …"
9,chain 1 Q2P,"0.00147 average fractional NGS count over selection days 2 and 3 (reads of this peptide / all reads for the bait, averaged over …"
10,chain 1 S15Q,"0.000297 average fractional NGS count over selection days 2 and 3 (reads of this peptide / all reads for the bait, averaged over …"
11,chain 1 S15H,"0.000369 average fractional NGS count over selection days 2 and 3 (reads of this peptide / all reads for the bait, averaged over …"
12,chain 1 S15E,"0.000326 average fractional NGS count over selection days 2 and 3 (reads of this peptide / all reads for the bait, averaged over …"
13,chain 1 S15M,"0.000289 average fractional NGS count over selection days 2 and 3 (reads of this peptide / all reads for the bait, averaged over …"
14,chain 1 S15Y,"0.000762 average fractional NGS count over selection days 2 and 3 (reads of this peptide / all reads for the bait, averaged over …"
15,chain 1 S15K,"0.000127 average fractional NGS count over selection days 2 and 3 (reads of this peptide / all reads for the bait, averaged over …"
16,chain 1 S15T,"0.000479 average fractional NGS count over selection days 2 and 3 (reads of this peptide / all reads for the bait, averaged over …"
17,chain 1 S15A,"0.00154 average fractional NGS count over selection days 2 and 3 (reads of this peptide / all reads for the bait, averaged over …"
18,chain 1 S15P,"0.000545 average fractional NGS count over selection days 2 and 3 (reads of this peptide / all reads for the bait, averaged over …"
19,chain 1 S15D,"0.000182 average fractional NGS count over selection days 2 and 3 (reads of this peptide / all reads for the bait, averaged over …"
20,chain 1 S15R,"0.000309 average fractional NGS count over selection days 2 and 3 (reads of this peptide / all reads for the bait, averaged over …"
21,chain 1 S15L,"0.00151 average fractional NGS count over selection days 2 and 3 (reads of this peptide / all reads for the bait, averaged over …"
22,chain 1 S15N,"0.000592 average fractional NGS count over selection days 2 and 3 (reads of this peptide / all reads for the bait, averaged over …"
23,chain 1 S15V,"0.000578 average fractional NGS count over selection days 2 and 3 (reads of this peptide / all reads for the bait, averaged over …"
24,chain 1 S15I,"0.000286 average fractional NGS count over selection days 2 and 3 (reads of this peptide / all reads for the bait, averaged over …"
25,chain 1 S15W,"0.000372 average fractional NGS count over selection days 2 and 3 (reads of this peptide / all reads for the bait, averaged over …"
